# Where a chain is given by its changes, count along the chain named.
# B1: L6-1B03 (protein)
# chain: MGSRLDKSKVINSALELLNEVGIEGLTTRKLAQKLGVEQPTLYWHVKNKRALLDALAIEMMDRHATHICPLEGESWQDFLRNNAKSMRCALLSHRDGAKVCLGTRWTEQQYEAAENMLAFLCQQGFSLENALYAVSAVRVFTLGCVLFDQESQVAKEERETPTTASMPPLLRQAWELKDHQGAEPAFLFGLELIICGLEKQLKCESGS
# modifications: Sulfonylurea responsive repressor
# B2: L6-2D07 (protein)
# chain: B1 chain with A65Q, I68F, N83T, A113T, V135M, L171V
# modifications: Sulfonylurea responsive repressor
# B3: L6-5G06 (protein)
# chain: B1 chain with A65Q, I68Y, A113T, M117Q, S152L, A174G
# modifications: Sulfonylurea responsive repressor
# B4: L6-6F07 (protein)
# chain: B1 chain with I68L, N83T, A113S, V135M
# modifications: Sulfonylurea responsive repressor
# B5: L6-5H06 (protein)
# chain: B1 chain with A65Q, Q109K, A113T, S152L, L171V
# modifications: Sulfonylurea responsive repressor
# B6: L6-4D10: library L6 clone, parent of library L8 hits (protein)
# chain: B1 chain with A65Q, I68Y, Q109K, A113S
# modifications: Sulfonylurea responsive repressor
# notes: library L6 clone, parent of library L8 hits
# B7: L6-5F05 (protein)
# chain: B1 chain with M117Q, S152L
# modifications: Sulfonylurea responsive repressor
# B8: L6-3H02: SuR polypeptide, SEQ ID NO:94 (protein)
# chain: B1 chain with I68Y, N83T, Q110H, A113S, L171V, D179V
# modifications: Sulfonylurea responsive repressor
# B9: L6-2C09 (protein)
# chain: B1 chain with A65Q, I68Y, N83T, Q110L, A113T, M117Q, V135M, S152L
# modifications: Sulfonylurea responsive repressor
# B10: L6-5H12 (protein)
# chain: B1 chain with I68Y, Q109K, A113T, M117Q, V135M, S152L, L171V
# modifications: Sulfonylurea responsive repressor
# B11: L8-3F09 (protein)
# chain: MARLDKSKVINSALELLNEVGIEGLTTRKLAQKLGVEQPTLYWHVKNKRALLDALAIEMMDRHQTHYSPLEGESWQDFLRNNAKSLRCALLSHRDGAKVCLGTRWTEQQYESAENMLAFLTQQGFSLENALYALTAVRVFTLGWVLFDQESQVAKEERETPTTDSMPPLLRQAWELKDHQGAEPAFLFGLELIIAGLEKQLKRESGS
# modifications: Sulfonylurea responsive repressor
# B12: L8-1B12 (protein)
# chain: B11 chain with L86W, T135E, R203A
# modifications: Sulfonylurea responsive repressor
# B13: L8-3E05 (protein)
# chain: B11 chain with S68C, T135Q, V139I, W144C, A195R
# modifications: Sulfonylurea responsive repressor
# B14: L8-2F12 (protein)
# chain: B11 chain with L86C, C88N, T135Q, A195R, R203S
# modifications: Sulfonylurea responsive repressor
# B15: L8-3B08 (protein)
# chain: B11 chain with L134V, T135D, V137A, A195R
# modifications: Sulfonylurea responsive repressor
# B16: L8-3A05 (protein)
# chain: B11 chain with L86C, C88N, L134V, T135S, W144A, A195S, R203S
# modifications: Sulfonylurea responsive repressor
# B17: L8-3D03 (protein)
# chain: B11 chain with S68L, L86C, C88N, T135D, W144A, A195R, R203S
# modifications: Sulfonylurea responsive repressor
# B18: L8-1A04 (protein)
# chain: B11 chain with S68L, L86C, C88N, S112T, T135E, V137A, W144A, A195S
# modifications: Sulfonylurea responsive repressor
# B19: L8-3F02 (protein)
# chain: B11 chain with L86C, C88R, T121C, L134V, T135S, V139I, W144A
# modifications: Sulfonylurea responsive repressor
# Test system: E. coli assay strain Km3
# Format: cell-based
# Details: for 0.2 ppm 48 hr (colony color intensity) / Control 84 hr (colony color intensity, background): M9 assay plates, ImageJ colony color intensity; for 0.2 ppm 48 hr (colony color intensity): 0.2 ppm chlorsulfuron, 48 hr at 30° C.; for Control 84 hr (colony color intensity, background): no inducer, 84 hr at 30° C.; for 0.2 ppm 48 hr/Control 84 hr: ratio of colony color with 0.2 ppm chlorsulfuron at 48 hr over no-inducer control at 84 hr; for IND = induction with 200 ppb Cs at 24 hrs (blue colony color intensity thru ImageJ analysis) / F. IND = fold induction: induction with 200 ppb Cs at 24 hrs/repression at 48 hrs / REP = repression measured without inducer after 48 hrs (blue colony color intensity thru ImageJ analysis): library L8 hits, M9 Xgal colony assay; for IND = induction with 200 ppb Cs at 24 hrs (blue colony color intensity thru ImageJ analysis): 200 ppb Chlorsulfuron; for F. IND = fold induction: induction with 200 ppb Cs at 24 hrs/repression at 48 hrs: ratio IND (200 ppb Cs, 24 hrs) / REP (48 hrs)
# Experimental: Library L6 was assembled, rescued, ligated into pVER7314, transformed into E. coli KM3 and plated out onto LB carbenicillin/kanamycin, and carbenicillin only control media as before. Library plates were then picked into 42 384-well microtiter plates (˜16,000 clones) containing 60 μl LB carbenicillin (Cb) broth per well. After overnight growth at 37° C. the cultures were stamped onto M9 assay plates containing no inducer, 0.2 ppm, and 2.0 ppm chlorsulfuron as test inducer. Following incubation at 30° C. for ˜48 hrs, putative hits responding to chlorsulfuron treatment as determined by increased blue colony color were re-arrayed into six 96-well microtiter plates and used to stamp a fresh set of M9 assay plates to confirm the above results. For a more detailed analysis of the relative induction by chlorsulfuron, digital photographs were taken of the plates after various time points of incubation at 30° C. and colony color intensity measured using the digital image analysis freeware program ImageJ (Rasband, US National Institutes of Health, Bethesda, Md., USA, rsb.info.nih.gov/ij/, 1997-2007). […] From this analysis sequence-activity relationships were derived. […] Briefly, C at position 100, and Q at positions 108 and 109 strongly correlated with activation, while R at position 138, L at position 170, and A or G at position 173 were highly preferred in clones with the lowest background activity. […] This information will aid in the design of further libraries to improve responsiveness to chlorsulfuron.
# Library L8 construction and screening. Fourth round shuffling incorporated the best diversity from Rd3 shuffling (BB1860) as well as computational diversity (Table 14). As diversity was very high the library oligo mix was spiked into the parental hit variant oligo mix (5, 10, and 25% mixes) to titer down the number of residue changes per clone. In addition, to varying residues for Cs activity, seven residues (C68, C86, C88, C121, C144, C195, and C203) were varied with TetR family phylogenetic substitutions in an attempt to reduce the number of cysteine residues in the repressor. The PCR assembled libraries were cloned Sac1/Asc1 into pVER7334. This plasmid encodes PBAD promoter controlled expression of a plant optimized TetR DNA binding domain fused to the wt ligand binding domain of TetR(B) encoded by native Tn10 sequence on a Sac1 to Asc1 fragment. Approximately 15,000 clones were screened for blue colony color on the M9 Xgal assay plates +/−200 ppb Chlorsulfuron (Cs). Clones were ranked by ratio of color with inducer after 24 hrs incubation over colony color without inducer for 48 hrs of incubation. The sequence trend in the overall larger population of hits (first re-array) was that L55, R104, W105 and L170 were maintained while the C144A substitution was highly preferred. Sequence trends within the hit population were then noted with respect to repression, induction and fold induction (which corrects for leakiness).
# Mutagenesis reactions were transformed into library strain Km3 and 96 colonies tested for substitution by DNA sequence analysis. Substitutions representing each possible residue at each position were then re-arrayed in triplicate onto M9 X-gal assay plates with 0, 20 and 200 ppb Chlorsulfuron. Plates were incubated at 37° C. for 24 and 48 hrs prior to imaging. Residue substitutions were then ranked by activation (emphasis on 20 ppb Cs) and repression characteristics (emphasis on 48 hr time point). The mutation with the greatest impact on activity was substitution of residue N82 to phenylalanine or tyrosine. […] All other preferred substitutions shown in Table 18 either improved repression or improved sensitivity to inducer without compromising repressor function. Certain residues were indispensible to function such as R104, W105, and W174 as substitutions were not allowed. Other residue positions such as R138 and K177 were also flagged as critical since functional substitutions were extremely limited. […]
Molecule,0.2 ppm 48 hr (colony color intensity),"Control 84 hr (colony color intensity, background)",0.2 ppm 48 hr/Control 84 hr,IND = induction with 200 ppb Cs at 24 hrs (blue colony color intensity thru ImageJ analysis),F. IND = fold induction: induction with 200 ppb Cs at 24 hrs/repression at 48 hrs,REP = repression measured without inducer after 48 hrs (blue colony color intensity thru ImageJ analysis)
B1,30.0,6.6,4.6,–,–,–
B2,20.0,5.8,3.4,–,–,–
B3,34.4,7.0,4.9,–,–,–
B4,11.6,5.1,2.3,–,–,–
B5,13.7,5.1,2.7,–,–,–
B6,18.4,5.0,3.7,0.2,0.4,0.6
B7,22.0,5.4,4.1,–,–,–
B8,15.8,5.6,2.8,–,–,–
B9,13.6,5.2,2.6,–,–,–
B10,23.7,5.7,4.2,–,–,–
B11,–,–,–,5.6,9.7,0.6
B12,–,–,–,12.5,5.1,2.4
B13,–,–,–,1.4,3.4,0.4
B14,–,–,–,2.7,3.6,0.7
B15,–,–,–,13.0,6.1,2.1
B16,–,–,–,0.3,3.3,0.1
B17,–,–,–,5.9,4.9,1.2
B18,–,–,–,12.2,6.2,2.0
B19,–,–,–,3.4,3.5,1.0
